For one series, the target named is thioflavin T. Description: Thioflavin T fluorescence. The following applies: value read at the wild-type emission peak, about 480 nm; the mutant trace lies on the zero line over the whole 460-595 nm spectrum; parent: est. 66; read off a plot.
Series [1] concerns the molecule itself. Description: transmission electron microscopy of filaments (negative stain); purified, concentrated protein left undisturbed (4°C, or 4°C or 22°C for the LCD proteins) for days to weeks; 1% phosphotungstic acid stain; self-assembly into filaments.

“Nab3 low complexity domain, C-terminal 134 amino acids of Nab3 (Nab3^134) (from UniProt P38996) Q2E; Q7E; Q9E; Q15E; Q30E; Q32E; Q34E; Q39E; Q41E; Q47E; Q50E; Q52E; Q55E; Q57E; Q59E; Q82E; Q96E; Q101E; Q105E; Q107E; Q109E; Q111E; Q113E; Q115E”: in the series with thioflavin T, the response worked out at 0.

B1: Nab3^134 with the last 18 amino acids of Nab3 deleted (Nab3^134Δα) (domain or fragment, S. cerevisiae, UniProt P38996 669-784, looked up)
chain: SQTPMDQQQLLSAIQNLPPNVVSNLLSMAQQQQQQPHAQQQLVGLIQSMQGQAPQQQQQQLGGYSSMNSSSPPPMSTNYNGQNISAKPSAPPMSHQPPPPQQQQQQQQQQQQQQQQ
notes: Same vector as m1, so an S-tag is probably left after thrombin cleavage
Turning to B1, the binding result in series [1] was “binds”.

B2: Full-length Nab3 (natural protein, S. cerevisiae, UniProt P38996 1-802, looked up)
chain: MSDENHNSDVQDIPSPELSVDSNSNENELMNNSSADDGIEFDAPEEEREAEREEENEEQHELEDVNDEEEEDKEEKGEENGEVINTEEEEEEEHQQKGGNDDDDDDNEEEEEEEEDDDDDDDDDDDDEEEEEEEEEEGNDNSSVGSDSAAEDGEDEEDKKDKTKDKEVELRRETLEKEQKDVDEAIKKITREENDNTHFPTNMENVNYDLLQKQVKYIMDSNMLNLPQFQHLPQEEKMSAILAMLNSNSDTALSVPPHDSTISTTASASATSGARSNDQRKPPLSDAQRRMRFPRADLSKPITEEEHDRYAAYLHGENKITEMHNIPPKSRLFIGNLPLKNVSKEDLFRIFSPYGHIMQINIKNAFGFIQFDNPQSVRDAIECESQEMNFGKKLILEVSSSNARPQFDHGDHGTNSSSTFISSAKRPFQTESGDMYNDDNGAGYKKSRRHTVSCNIFVKRTADRTYAIEVFNRFRDGTGLETDMIFLKPRMELGKLINDAAYNGVWGVVLVNKTHNVDVQTFYKGSQGETKFDEYISISADDAVAIFNNIKNNRNNSRPTDYRAMSHQQNIYGAPPLPVPNGPAVGPPPQTNYYQGYSMPPPQQQQQQPYGNYGMPPPSHDQGYGSQPPIPMNQSYGRYQTSIPPPPPQQQIPQGYGRYQAGPPPQPPSQTPMDQQQLLSAIQNLPPNVVSNLLSMAQQQQQQPHAQQQLVGLIQSMQGQAPQQQQQQLGGYSSMNSSSPPPMSTNYNGQNISAKPSAPPMSHQPPPPQQQQQQQQQQQQQQQQPAGNNVQSLLDSLAKLQK
notes: Nab3, S. cerevisiae transcription termination factor, 802 amino acids; also called full-length wildtype Nab3; the entire 802-residue protein
Take B2: the binding result in series [1] is recorded as “binds”.

B3: Pcf11 low complexity domain (residues 228-287) (domain or fragment, yeast, UniProt P39081 228-287, looked up)
chain: MRYHELQQQQQQQQQQQQQQQQQQQQYHETKDMVGSYTQNSNSAIPLFGNNSDTTNQQNS
notes: Pcf11, yeast transcription termination factor, codon 228 to codon 287 (core prion-like domain as defined by Alberti et al.); Inserted between the BglII and XhoI sites of pET32a; also called Pcf11 LCD; Pcf11's LCD; source: E. coli, pET32-Pcf11-LCD (synthetic gene), thioredoxin fusion, purified (HisTrap, thrombin cleavage, second HisTrap)
For B3, the binding result in series [1] is reported as “binds”.

B4: Nab3 low complexity domain, C-terminal 134 amino acids of Nab3 (Nab3^134) (domain or fragment, S. cerevisiae, UniProt P38996 669-802, looked up)
chain: SQTPMDQQQLLSAIQNLPPNVVSNLLSMAQQQQQQPHAQQQLVGLIQSMQGQAPQQQQQQLGGYSSMNSSSPPPMSTNYNGQNISAKPSAPPMSHQPPPPQQQQQQQQQQQQQQQQPAGNNVQSLLDSLAKLQK
notes: Inserted between the BglII and XhoI sites of pET32a; also called Nab3 LCD; wildtype LCD
For B4, in series [1], the binding result is given as “binds”.
